Data on 13 molecules can be found in US20250136696A1 (HARBOUR BIOMED SHANGHAI, published 2025).

Substitutions are numbered along the chain they refer to. Names and notes keep the numbering of the source.

For test [1], the target named is T1, human B7-H7 on the cell surface (human, UniProt Q9UM44 23-414).
T1 construct: whole, on cells; also called hB7-H7; hu B7-H7
T1 sequence (looked up): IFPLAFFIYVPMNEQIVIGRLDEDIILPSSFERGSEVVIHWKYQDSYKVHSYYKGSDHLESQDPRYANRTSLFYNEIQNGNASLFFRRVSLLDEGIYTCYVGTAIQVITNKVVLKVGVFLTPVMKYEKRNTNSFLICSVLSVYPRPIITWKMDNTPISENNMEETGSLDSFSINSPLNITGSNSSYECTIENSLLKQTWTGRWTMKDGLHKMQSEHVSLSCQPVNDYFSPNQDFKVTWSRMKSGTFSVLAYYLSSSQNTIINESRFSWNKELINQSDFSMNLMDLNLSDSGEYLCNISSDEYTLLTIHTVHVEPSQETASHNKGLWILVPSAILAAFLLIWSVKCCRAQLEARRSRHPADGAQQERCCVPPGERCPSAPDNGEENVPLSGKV
As to the kind of experiment: flow cytometry, HCC827 cells. The procedure: (§1) This example was intended to study the in vitro activity of H2L2 monoclonal antibodies against human B7-H7 in binding to human/cynomolgus monkey B7-H7. Since homologous molecules of B7-H7 were not present in mice, the detection was not performed. […] The cells were adjusted to a cell density of 1×10⁶ cells/mL, respectively. The cells were seeded in a 96-well V-bottom plate (Corning, #3894) at 100 μL/well, and the antibody to be tested at 2× final concentration with 3-fold concentration gradient dilution was then added at 100 μL/well. The cells were incubated at 4° C. for 2 hours in the dark. After the incubation, the cells were rinsed twice by adding pre-chilled PBS containing 2% BSA at 100 μl/well, and centrifuged at 500 g at 4° C. for 5 minutes, and the supernatant was discarded. […] The cells were washed twice by adding pre-chilled PBS containing 2% BSA at 100 μL/well, and centrifuged at 500 g at 4° C. for 5 minutes, and the supernatant was discarded. Finally, the cells were resuspended in pre-chilled PBS containing 2% BSA at 200 μL/well, and the fluorescence signal values were read using an ACEA Novocyte3000 flow cytometer.

Test [2] has as its target T1, human B7-H7 on the cell surface. As to the kind of experiment: flow cytometry, HEK-293/hu B7-H7 cells. The procedure: as §1
(In flow cytometry, cells or beads pass a laser one at a time.)

Test [3] addresses T2, cynomolgus monkey B7-H7 on the cell surface (cynomolgus monkey).
T2 construct: whole, on cells; also called cyno B7-H7
As to the kind of experiment: flow cytometry, HEK-293/cyno B7-H7 cells. The procedure: as §1

For test [4], the target named is T3, biotinylated human B7-H7 protein (Acro Biosystems, B77-H82F5) (human, UniProt Q9UM44 23-344, biotinylated).
T3 construct: Bought soluble protein; also called biotin-B7H7 protein
T3 sequence (looked up): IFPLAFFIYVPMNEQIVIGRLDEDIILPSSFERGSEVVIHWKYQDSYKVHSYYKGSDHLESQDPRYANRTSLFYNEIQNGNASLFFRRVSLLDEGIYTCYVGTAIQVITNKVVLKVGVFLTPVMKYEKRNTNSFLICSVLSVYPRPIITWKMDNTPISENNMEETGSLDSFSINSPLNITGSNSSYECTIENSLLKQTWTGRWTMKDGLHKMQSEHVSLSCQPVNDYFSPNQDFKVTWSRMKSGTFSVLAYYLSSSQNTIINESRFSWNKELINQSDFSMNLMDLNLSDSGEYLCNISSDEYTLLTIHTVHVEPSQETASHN
As to the kind of experiment: flow cytometry, blocking of biotinylated human B7-H7 binding to HEK-293/CD28H cells. The method, then: This example was intended to study the in vitro blocking activity of human anti-B7-H7 antibodies against the binding of human B7-H7 to its receptor CD28H. […] The cells were adjusted to a cell density of 1×10⁶ cells/mL. […] The cells were incubated at 4° C. for 1 hour in the dark. […] The cells were rinsed twice by adding pre-chilled PBS containing 2% BSA at 100 μL/well, and were centrifuged at 500 g at 4° C. for 5 minutes, and the supernatant was discarded. A fluorescent secondary antibody (PE Streptavidin, BD, Cat #: 554061, 1:200) was added at 100 μL/well, and the cells were incubated at 4° C. for 30 minutes in the dark. The cells were washed twice by adding pre-chilled PBS at 200 μL/well, and centrifuged at 500 g at 4° C. for 5 minutes, and the supernatant was discarded. Finally, the cells were resuspended in pre-chilled PBS at 200 μL/well, and the fluorescence signal values were read using an ACEA Novocyte3000 flow cytometer. IC50 was calculated.

Test [5] deals with T3, biotinylated human B7-H7 protein (Acro …). As to the kind of experiment: flow cytometry, blocking of biotinylated human B7-H7 binding to CHO-K1/KIR3DL3 cells. From the text:
This example was intended to study the in vitro blocking activity of human anti-B7-H7 antibodies against the binding of human B7-H7 to its receptor KIR3DL3. A CHO-K1 cell (CHO-K1/KIR3DL3, Harbour BioMed US, Inc.) overexpressing human KIR3DL3 was used in experiments at the cellular level where human B7-H7/human KIR3DL3 binding was blocked. Briefly, the CHO-K1/KIR3DL3 cells were digested and resuspended in PBS containing 2% BSA. The cells were adjusted to a cell density of 1×10⁶ cells/mL. […] The cells were incubated at 4° C. for 1 hour in the dark. […] The cells were rinsed twice by adding pre-chilled PBS containing 2% BSA at 100 μL/well, and were centrifuged at 500 g at 4° C. for 5 minutes, and the supernatant was discarded. A fluorescent secondary antibody (PE Streptavidin, BD, Cat #: 554061, 1:200) was added at 100 μL/well, and the cells were incubated at 4° C. for 30 minutes in the dark. The cells were washed twice by adding pre-chilled PBS at 200 µL/well, and centrifuged at 500 g at 4° C. for 5 minutes, and the supernatant was discarded. Finally, the cells were resuspended in pre-chilled PBS at 200 μL/well, and the fluorescence signal values were read using an ACEA Novocyte3000 flow cytometer. IC50 was calculated.

For test [6], the target named is T4, human B7-H7 recombinant protein (human, UniProt Q9UM44 23-344).
T4 construct: also called human B7-H7 protein
T4 sequence (looked up): T3 sequence (looked up)
As to the kind of experiment: BLI (Octet), antibody captured on AHC sensor, human B7-H7 in solution, 1:1 global fit. The procedure: The binding kinetics between antigen and antibody was analyzed using an Octet Red 96e (Fortebio) molecular interaction analyzer by biolayer interferometry (BLI) technology.
For determining the affinity of antibodies for antigens, the rotary speed of the sensor was set at 1000 rpm. AHC sensors (Fortebio, #18-5060) placed in one column were first equilibrated in a test buffer for 10 minutes, and then used to capture the anti-B7-H7 antibodies at a capture height of 0.7 nm; and after being equilibrated in the buffer for 120 s, the AHC sensors bound to human B7-H7 (concentrations: 50-3.125 nM and 0 nM) with 2-fold gradient dilution for 180 s and dissociated for 300 s. The AHC sensors were finally regenerated by immersing in a 10 mM glycine-hydrochloric acid solution with pH 1.5 to elute the protein bound to the sensors.
For data analysis using Octet Data Analysis software (Fortebio, version 11.0), 0 nM well was used as the reference well, reference subtraction was performed, “1:1 Global fitting” method was selected for data fitting, the kinetic parameters of the binding of the antigen to the antigen-binding protein were calculated, and the kₒₙ (1/Ms) value, kdis (1/s) value and KD (M) value were obtained.
(In general: BLI is a label-free optical method that tracks binding on a fibre tip over time.)

The target of test [7] is T3, biotinylated human B7-H7 protein (Acro …). As to the kind of experiment: BLI epitope competition on SA-captured biotinylated B7-H7; competitor (first antibody) PR003249. The procedure:
Epitope competition experiments were performed on the anti-B7-H7 antibodies using the ForteBio Octet Red96e platform with the same experimental buffer as described above. […] After being equilibrated in a buffer for 120 s, the sensors were immersed in various antibodies diluted to 100 nM for 240 s, and the final signal of the antibody binding to B7-H7 was recorded as the 100% signal for that antibody. Second step, epitope competition experiment: B7-H7 was captured using SA sensors at a capture height of 0.25 nm. The sensors were immersed in a first antibody (concentration: 100 nM) for 240 s, then the SA sensors were immersed in a mixture of the first antibody and a second antibody (final concentration of both antibodies: 100 nM) for 240 s, and the difference in signals before and after immersing the sensors in the mixture of the two antibodies was recorded as the signal for that antibody as the second antibody. The inhibition rate was calculated by the following equation, […]

The target of test [8] is T1, human B7-H7 on the cell surface. As to the kind of experiment: flow cytometry on LS180 cells, expression supernatant diluted 1:1, 1:10, 1:100.

B1: PR003265 (antibody, human IgG1, kappa, V domains shown)
VH: QVQLVESGGGVVQPGRSLRLSCAASGFTFSTYGLHWVRQAPGKGLEWVAVIWYDESNEYYADSVKGRFTISRDNSKNTLYLQMNSLRAEDTALYYCARLAHDYGGTYFDYWGQGTLVTVSS
VL: EIVMTQSPAILSVSPGERATLSCRASQSISYNLAWYQQKPGQAPRLLIYGASIRATGIPARFSGSGSGTDFTLTISSLQSEDFAVYYCQQYNNWPPWTFGQGTKVEIKR
notes: Human IgG1; also called 78G8B3
Usually EC50 stands for the concentration at which the effect is half-maximal. As a reminder, the IC50 is the concentration needed to halve the response being measured. The Kd is the equilibrium constant for the complex coming apart. The koff is a measure of how fast the partners let go of each other. In general, kon refers to the second-order rate constant of association. Take B1: in test [1], the midpoint of the response, the EC50, lay at 0.0903 nM and the “Maximum MFI” value was found to be 51800 MFI. Further, in test [2], the response was half-maximal at 1.24 nM (EC50) and the “Maximum MFI” value came out at 824000 MFI. Also, in test [3], the EC50 is 0.711 nM and the “Maximum MFI” value worked out at 451000 MFI. In test [4], the half-inhibitory concentration (IC50) was 1.39 nM and the “Maximum inhibition rate (%)” value stood at 102%. In test [5], the half-inhibitory concentration (IC50) came to 7.04 nM and the “Maximum inhibition rate (%)” value was determined as 101%. Further, in test [6], the Kd was found to be 0.595 nM, the koff came out at 2.93e-05 s⁻¹ and the kon was found to be 49300 M⁻¹ s⁻¹. Besides, in test [7], the “Competitive inhibition rate (%)” value was determined as 106%.

B2: PR004487 (antibody, human IgG1, kappa, L234A L235A, V domains shown)
VH: QVQLVESGGGVVQPGRSLRLSCAASGFTFSNYGMHWVRQVPGKGLEWVAVIWYEGSEKDYADSVKGRFTISRDNSKNTLYLQMNSLRVEDTAVYYCAKDLISGIYYVDHWGQGTLVTVSS
VL: DIQMTQSPSSLSASVGDRVTITCRASQGISNYLAWYQQKPGKVPKLLIYAASTLQSGVPSRFSGSGSGTDFTLTISSLQPEDVATYYCQKYNSAPFTFGPGTKVDIKR
notes: Variant of PR003259, H:D54E; Human IgG1 LALA; expressed supernatant only
Take B2: the binding result in test [8] is “binds”.

B3: PR004488 (antibody, human IgG1, kappa, L234A L235A, V domains shown)
VH: B2 VH
VL: B2 VL with N92Q
notes: Variant of PR003259, H:D54E; L:N92Q; Human IgG1 LALA; expressed supernatant only
As for B3, the binding result in test [8] is “binds”.

B4: PR004494 (antibody, human IgG1, kappa, L234A L235A, V domains shown)
VH: B2 VH with E54D
VL: B2 VL with S93A
notes: Variant of PR003259, L:S93A; Human IgG1 LALA; expressed supernatant only
B4: the binding result in test [8] is on record as “binds”.

B5: PR004490 (antibody, human IgG1, kappa, L234A L235A, V domains shown)
VH: B2 VH with E54D, G55A
VL: B2 VL
notes: Variant of PR003259, H:G55A; Human IgG1 LALA; expressed supernatant only
For the molecule B5, the binding result in test [8] is “binds”.

B6: PR004489 (antibody, human IgG1, kappa, L234A L235A, V domains shown)
VH: B2 VH
VL: B2 VL with S93A
notes: Variant of PR003259, H:D54E; L:S93A; Human IgG1 LALA; expressed supernatant only
B6: in test [8], the binding result is given as “binds”.

B7: PR004493 (antibody, human IgG1, kappa, L234A L235A, V domains shown)
VH: B2 VH with E54D
VL: B2 VL with N92Q
notes: Variant of PR003259, L:N92Q; Human IgG1 LALA; expressed supernatant only
In the case of B7, the binding result in test [8] is reported as “binds”.

B8: PR004479 (antibody, human IgG1, kappa, L234A L235A, V domains shown)
VH: QVQLVESGGGVVQPGRSLRLSCAASGFTFSDYGIHWVRQAPGKGLEWVAVIWYEGSDKYYADSVRGRFTISRDNSKNTLSLQMNSLRVEDTAVYYCARDRSSGAMGYFVYWGQGTLVTVSS
VL: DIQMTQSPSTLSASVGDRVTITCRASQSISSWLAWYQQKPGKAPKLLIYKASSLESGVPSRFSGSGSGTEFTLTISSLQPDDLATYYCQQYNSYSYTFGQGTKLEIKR
notes: Variant of PR003249, H:D54E; Human IgG1 LALA; expressed supernatant only
B8: the binding result in test [8] is “binds”.

B9: PR004485 (antibody, human IgG1, kappa, L234A L235A, V domains shown)
VH: B8 VH with E54D
VL: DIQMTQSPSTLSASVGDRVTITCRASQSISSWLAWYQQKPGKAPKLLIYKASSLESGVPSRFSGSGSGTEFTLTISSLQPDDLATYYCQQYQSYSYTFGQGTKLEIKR
notes: Variant of PR003249, L:N92Q; Human IgG1 LALA; expressed supernatant only
Take B9: the binding result in test [8] is “binds”.

B10: PR004482 (antibody, human IgG1, kappa, L234A L235A, V domains shown)
VH: B8 VH with E54D, G55A
VL: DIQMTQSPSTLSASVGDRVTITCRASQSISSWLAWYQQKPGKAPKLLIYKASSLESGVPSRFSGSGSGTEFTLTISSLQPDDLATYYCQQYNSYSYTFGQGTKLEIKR
notes: Variant of PR003249, H:G55A; Human IgG1 LALA; expressed supernatant only
Regarding B10, the binding result in test [8] is on record as “binds”.

B11: PR004481 (antibody, human IgG1, kappa, L234A L235A, V domains shown)
VH: B8 VH
VL: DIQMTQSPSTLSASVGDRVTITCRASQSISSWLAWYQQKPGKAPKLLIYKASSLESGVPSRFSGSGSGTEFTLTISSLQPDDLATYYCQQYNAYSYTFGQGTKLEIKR
notes: Variant of PR003249, H:D54E; L:S93A; Human IgG1 LALA; expressed supernatant only
B11: the binding result in test [8] is “binds”.

B12: PR004486 (antibody, human IgG1, kappa, L234A L235A, V domains shown)
VH: B8 VH with E54D
VL: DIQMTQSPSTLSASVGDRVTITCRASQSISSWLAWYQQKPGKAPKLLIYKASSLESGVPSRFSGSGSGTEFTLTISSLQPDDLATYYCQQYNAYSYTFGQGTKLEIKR
notes: Variant of PR003249, L:S93A; Human IgG1 LALA; expressed supernatant only
On to B12, for which the binding result in test [8] is recorded as “binds”.

B13: PR004480 (antibody, human IgG1, kappa, L234A L235A, V domains shown)
VH: B8 VH
VL: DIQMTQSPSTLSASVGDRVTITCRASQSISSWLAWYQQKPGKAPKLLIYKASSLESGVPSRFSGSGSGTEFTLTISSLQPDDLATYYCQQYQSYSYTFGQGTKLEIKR
notes: Variant of PR003249, H:D54E; L:N92Q; Human IgG1 LALA; expressed supernatant only
For B13, the binding result in test [8] is listed as “binds”.
